Source: paper PMC10183829, “Shuffled ATG8 interacting motifs form an ancestral bridge between UFMylation and autophagy” (The EMBO Journal, 2023)

Experiments:
GST-GABARAP = GST-GABARAP (UniProt O95166); test: microscopy-based protein-protein interaction assay (on-bead binding, confocal); conditions: 1 μM C53 protein; glutathione-sepharose beads with GST-GABARAP; parent: est. 1.0; read off a plot
[1] = target: GST-ATG8A (Arabidopsis thaliana) (UniProt Q8LEM4); test: microscopy-based on-bead protein-protein interaction assay
Sequence of GST-ATG8A (Arabidopsis thaliana) (Q8LEM4 1-117): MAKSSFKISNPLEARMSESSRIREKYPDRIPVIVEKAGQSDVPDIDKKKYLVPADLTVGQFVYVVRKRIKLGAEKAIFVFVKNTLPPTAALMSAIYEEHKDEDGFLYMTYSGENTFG

Sequence of GST-GABARAP (O95166 whole entry): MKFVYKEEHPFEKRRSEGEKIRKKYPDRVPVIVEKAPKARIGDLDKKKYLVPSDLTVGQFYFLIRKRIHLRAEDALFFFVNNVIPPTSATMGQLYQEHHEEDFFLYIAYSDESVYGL

| Substance | response (normalized fluorescence) (GST-GABARAP) | percent more efficiently recruited than the wild type [1] [%] |
| --- | --- | --- |
| mCh-AtC53, Q9FG23 IDWD274WDDI; IDWD285WDDI; IDWD333WDDI | 1.4 | – |
| mCh-AtC53^cAIM (IDWD274WDDI, IDWD285WDDI, IDWD333WDDI) (natural protein) | – | 22 |
